From patent US20230265151A1, “GIP/GLP1 CO-AGONIST COMPOUNDS” (priority 2020, published 2023)
*1 amine or outer side, *2 acyl side, *3 side chain or, on linkers, in order; H or OH if unused. Where no end group is shown, it is not given here. Side-chain parts run from the residue outwards. [ ]: non-standard residue; d: D form. The star is where a group is joined. αMePhe(2-F) = C[C@](N)(Cc1ccccc1F)C(=O)O; γGlu = O=C(O)[C@H](CCC(=O)[*:2])N[*:1]; C14 diacid = O=C(O)CCCCCCCCCCCCC(=O)*; αMeY = C[C@](N)(Cc1ccc(O)cc1)C(=O)O; αMeL = CC(C)C[C@](C)(N)C(=O)O; Orn = NCCC[C@H](N)C(=O)O; Dap = NC[C@H](N)C(=O)O; AEEA = NCCOCCOCC(=O)O; Aib = CC(C)(N)C(=O)O

T1: human GIP receptor (human, UniProt P48546 22-466)
T1 sequence (looked up): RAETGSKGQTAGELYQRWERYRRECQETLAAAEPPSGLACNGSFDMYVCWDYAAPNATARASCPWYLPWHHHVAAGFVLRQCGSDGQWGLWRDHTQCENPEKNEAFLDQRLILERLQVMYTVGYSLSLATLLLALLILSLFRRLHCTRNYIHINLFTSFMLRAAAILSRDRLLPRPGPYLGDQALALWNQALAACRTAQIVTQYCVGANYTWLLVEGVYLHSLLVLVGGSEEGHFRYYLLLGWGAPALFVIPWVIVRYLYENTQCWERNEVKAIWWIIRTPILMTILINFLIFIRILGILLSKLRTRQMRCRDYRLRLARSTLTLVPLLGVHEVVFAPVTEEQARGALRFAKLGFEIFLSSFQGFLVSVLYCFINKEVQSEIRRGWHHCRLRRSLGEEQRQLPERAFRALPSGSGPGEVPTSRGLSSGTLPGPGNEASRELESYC


Assays:
Experiment in all cases: cell-based or functional assay
human GIP receptor = molecular target: T1, human GIP receptor
human GLP-1 receptor = human GLP-1 receptor (human, UniProt P43220 24-463)
human glucagon receptor = human glucagon receptor (human, UniProt P47871 26-477)

Row | Binder | cAMP EC50 (1.0% HSA) (human GIP receptor) | cAMP Emax (1.0% HSA) (human GIP receptor) | cAMP EC50 (1.0% HSA) (human GLP-1 receptor) | cAMP EC50 (1.0% HSA) (human glucagon receptor) | cAMP Emax (1.0% HSA) (human GLP-1 receptor)
1 | Y[Aib]EGT[αMePhe(2-F)]TSDV[Dap]I[αMeL]LD[Orn]K([AEEA-AEEA-γGlu-C14 diacid])AQ[Aib]EFI[dE][αMeY]LIEGGK([AEEA-AEEA-γGlu-C14 diacid])SSGAPPPS-NH2 (N-terminus assumed; SMILES CC[C@H](C)[C@H](NC(=O)[C@H](CC(C)C)NC(=O)[C@](C)(Cc1ccc(O)cc1)NC(=O)[C@@H](CCC(=O)O)NC(=O)[C@@H](NC(=O)[C@H](Cc1ccccc1)NC(=O)[C@H](CCC(=O)O)NC(=O)C(C)(C)NC(=O)[C@H](CCC(N)=O)NC(=O)[C@H](C)NC(=O)[C@H](CCCCNC(=O)COCCOCCNC(=O)COCCOCCNC(=O)CC[C@H](NC(=O)CCCCCCCCCCCCC(=O)O)C(=O)O)NC(=O)[C@H](CCCN)NC(=O)[C@H](CC(=O)O)NC(=O)[C@H](CC(C)C)NC(=O)[C@](C)(CC(C)C)NC(=O)[C@@H](NC(=O)[C@H](CN)NC(=O)[C@@H](NC(=O)[C@H](CC(=O)O)NC(=O)[C@H](CO)NC(=O)[C@@H](NC(=O)[C@](C)(Cc1ccccc1F)NC(=O)[C@@H](NC(=O)CNC(=O)[C@H](CCC(=O)O)NC(=O)C(C)(C)NC(=O)[C@@H](N)Cc1ccc(O)cc1)[C@@H](C)O)[C@@H](C)O)C(C)C)[C@@H](C)CC)[C@@H](C)CC)C(=O)N[C@@H](CCC(=O)O)C(=O)NCC(=O)NCC(=O)N[C@@H](CCCCNC(=O)COCCOCCNC(=O)COCCOCCNC(=O)CC[C@H](NC(=O)CCCCCCCCCCCCC(=O)O)C(=O)O)C(=O)N[C@@H](CO)C(=O)N[C@@H](CO)C(=O)NCC(=O)N[C@@H](C)C(=O)N1CCC[C@H]1C(=O)N1CCC[C@H]1C(=O)N1CCC[C@H]1C(=O)N[C@@H](CO)C(N)=O) | 13.2 nM | 80.5% | 25.1 nM | – | –
2 | YXEGTXTSDXSIXLDXKAQXEFIXXLIEGKPSSGAPPPS (Aib2, αMeF(2F)6, 4Pal10, αMeL13, Orn16, Aib20, D-Glu24, αMeY25; acylated K17, K30 (groups as in name); C-terminal amide) [Y-Aib-EGT-αMeF(2F)-TSD-4Pal-SI-αMeL-LD-Orn-K((2-[2-(2-Amino-ethoxy)-ethoxy]-acetyl)2-(γ-Glu)-CO-(CH2)12-CO2H)AQ-Aib-EFI-(D-Glu)-αMeY-LIEGK((2-[2-(2-Amino-ethoxy …, listing 1 of 2 here] | 1.12 nM | – | – | > 9950 nM | 103%
3 | YXEGTXTSDXSIXLDXKAQXEFIXXLIEGGKSSGAPPPS (Aib2, αMeF(2F)6, hTyr10, αMeL13, Orn16, Aib20, D-Glu24, αMeY25; acylated K17, K31 (groups as in name); C-terminal amide) | 1.52 nM | – | 16.2 nM | > 9950 nM | –
4 | YXEGTXTSDXSIXLDXKAQXEFIXXLIEGGKSSGAPPPS (Aib2, αMeF6, αMeF10, αMeL13, Orn16, Aib20, D-Glu24, αMeY25; acylated K17, K31 (groups as in name); C-terminal amide) | 13.7 nM | 72.5% | 387 nM | > 9950 nM | –
5 | YXEGTXTSDXSIXLDXKAQXEFIXXLIEGGKSSGAPPPS (Aib2, αMeF(2F)6, αMeL10, αMeL13, Orn16, Aib20, D-Glu24, αMeY25; acylated K17, K31 (groups as in name); C-terminal amide) | 15.8 nM | – | 100 nM | > 9950 nM | –
6 | YXEGTXTSDXSIXLDXKAQXEFIXXLIEGGKSSGAPPPS (Aib2, αMeF(2F)6, αMeV10, αMeL13, Orn16, Aib20, D-Glu24, αMeY25; acylated K17, K31 (groups as in name); C-terminal amide) | 18.6 nM | – | 37.8 nM | > 9950 nM | –
7 | YXEGTXTSDVXIXLDXKAQXEFIXXLIEGGKSSGAPPPS (Aib2, αMeF(2F)6, αMeS11, αMeL13, Orn16, Aib20, D-Glu24, αMeY25; acylated K17, K31 (groups as in name); C-terminal amide) | 16.6 nM | 81% | 33.7 nM | – | 91%
8 | YXEGTXTSDXSIXLDXKAQXEFIXXLIEGGKSSGAPPPS (Aib2, αMeF(2F)6, Nle10, αMeL13, Orn16, Aib20, D-Glu24, αMeY25; acylated K17, K31 (groups as in name); C-terminal amide) | 1.2 nM | – | 28.5 nM | > 9950 nM | –
9 | YXEGTXTSDXSIXLDXKAQXEFIXXLIEGGKSSGAPPPS (Aib2, αMeF(2F)6, Ac6c10, αMeL13, Orn16, Aib20, D-Glu24, αMeY25; acylated K17, K31 (groups as in name); C-terminal amide) | 0.865 nM | – | 20.3 nM | > 9950 nM | –
10 | YXEGTXTSDXSKXLDXKAQXEFIXXLIEGGPSSGAPPPS (Aib2, αMeF(2F)6, 4Pal10, αMeL13, Orn16, Aib20, D-Glu24, αMeY25; acylated K12, K17 (groups as in name); C-terminal amide) | 2.08 nM | 93% | 60.4 nM | > 9950 nM | –
11 | YXEGTXTSDXSIXLDXKAQXEFIXXLIEGGKSSGAPPPS (Aib2, αMeF(2F)6, Ac5c10, αMeL13, Orn16, Aib20, D-Glu24, αMeY25; acylated K17, K31 (groups as in name); C-terminal amide) | 3.53 nM | – | 13.2 nM | > 9950 nM | 89.3%
12 | YXEGTXTSDXSIXLDXKAQXEFIXXLIEGKPSSGAPPPS (Aib2, αMeF(2F)6, 4Pal10, αMeL13, Orn16, Aib20, D-Glu24, αMeY25; acylated K17, K30 (groups as in name); C-terminal amide) [Y-Aib-EGT-αMeF(2F)-TSD-4Pal-SI-αMeL-LD-Orn-K((2-[2-(2-Amino-ethoxy)-ethoxy]-acetyl)2-(γ-Glu)-CO-(CH2)14-CH3)AQ-Aib-EFI-(D-Glu)-αMeY-LIEGK((2-[2-(2-Amino-ethoxy) …, listing 2 of 2 here] | 0.444 nM | – | – | > 9950 nM | 103%
13 | YXEGTXTSDYXIXLDXKAQXEFIXXLIEGGKSSGAPPPS (Aib2, αMeF(2F)6, αMeS11, αMeL13, Orn16, Aib20, D-Glu24, αMeY25; acylated K17, K31 (groups as in name); C-terminal amide) | 1.51 nM | 92.4% | 20.1 nM | > 9950 nM | –
14 | YXEGTXTSDXSIXLDXKAQXEFIXXLIEGGKSSGAPPPS (Aib2, αMeF(2F)6, 2Nal10, αMeL13, Orn16, Aib20, D-Glu24, αMeY25; acylated K17, K31 (groups as in name); C-terminal amide) | 4.55 nM | – | 39.3 nM | > 9950 nM | –
15 | YXEGTXTSDXSIXLDXKAQXEFIXXLIEGGKSSGAPPPS (Aib2, αMeF6, 4Pal10, αMeF13, Orn16, Aib20, D-Glu24, αMeY25; acylated K17, K31 (groups as in name); C-terminal amide) | 12.8 nM | 73.3% | 261 nM | > 9950 nM | –
16 | YXEGTXTSDXSIXLDXKAQXEFIXXLIEGGKSSGAPPPS (Aib2, αMeF6, 4Pal10, αMeL13, Orn16, Aib20, D-Glu24, αMeF25; acylated K17, K31 (groups as in name); C-terminal amide) | 2.12 nM | – | 118 nM | > 9950 nM | –
17 | YXEGTXTSDXSIXLDXKAQXEFIXXLIEGGKSSGAPPPS (Aib2, αMeF(2F)6, Bip10, αMeL13, Orn16, Aib20, D-Glu24, αMeY25; acylated K17, K31 (groups as in name); C-terminal amide) | 6.62 nM | – | 70.5 nM | > 9950 nM | –
18 | YXEGTXTSDXSIXLDXKAQXEFIXXLIEGGKSSGAPPPS (Aib2, αMeF(2F)6, OMeY10, αMeL13, Orn16, Aib20, D-Glu24, αMeY25; acylated K17, K31 (groups as in name); C-terminal amide) | 1.12 nM | – | 21.6 nM | > 9950 nM | –
19 | YXEGTXTSDYXIXLDXKAQXEFIXXLIEGGKSSGAPPPS (Aib2, αMeF(2F)6, Aib11, αMeL13, Orn16, Aib20, D-Glu24, αMeY25; acylated K17, K31 (groups as in name); C-terminal amide) | 1.81 nM | 91.4% | 27.8 nM | > 9950 nM | –
